Common to all, as to experiment: cell-based or functional assay
Assay [1] has as its target Y1R.
Assay [2] concerns the target Y4R.
The target in assay [3] is T1, Y5R.
T1 sequence (Q15761 whole entry, species assumed, looked up): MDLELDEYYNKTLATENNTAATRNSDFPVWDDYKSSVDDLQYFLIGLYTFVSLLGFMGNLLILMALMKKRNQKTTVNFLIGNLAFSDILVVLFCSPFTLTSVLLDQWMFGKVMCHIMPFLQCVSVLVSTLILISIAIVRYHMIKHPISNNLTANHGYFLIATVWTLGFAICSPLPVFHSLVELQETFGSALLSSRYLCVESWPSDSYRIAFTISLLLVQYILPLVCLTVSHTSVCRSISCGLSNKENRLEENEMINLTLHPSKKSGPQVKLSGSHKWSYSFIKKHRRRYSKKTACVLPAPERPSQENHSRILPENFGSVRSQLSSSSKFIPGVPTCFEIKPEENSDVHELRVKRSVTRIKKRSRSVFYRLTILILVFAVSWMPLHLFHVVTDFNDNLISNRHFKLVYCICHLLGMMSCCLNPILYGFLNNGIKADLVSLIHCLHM

The target of assay [4] is T2, human NPY2 receptor (human, UniProt P49146 1-381).
T2 sequence (looked up): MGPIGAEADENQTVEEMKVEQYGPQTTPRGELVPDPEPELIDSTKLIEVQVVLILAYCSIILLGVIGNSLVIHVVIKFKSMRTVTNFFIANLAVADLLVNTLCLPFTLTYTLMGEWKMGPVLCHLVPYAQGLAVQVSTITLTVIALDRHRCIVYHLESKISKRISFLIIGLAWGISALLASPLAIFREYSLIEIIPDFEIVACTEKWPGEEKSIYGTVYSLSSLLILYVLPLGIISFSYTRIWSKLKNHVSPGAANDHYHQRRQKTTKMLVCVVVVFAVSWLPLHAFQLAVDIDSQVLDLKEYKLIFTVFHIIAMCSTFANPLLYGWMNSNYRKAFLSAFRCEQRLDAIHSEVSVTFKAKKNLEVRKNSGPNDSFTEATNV

Starred links: 1 amine or outer side, 2 acyl side, 3 side chain; linkers in the order of their positions; H or OH if unused. Non-standard residues stand in square brackets, D forms with d. No end group written: not given here. Pqa = 4-oxo-6-(1-piperazinyl)-3(4H)-quinazoline-acetic acid, O=C(Cn1cnc2ccc(N3CCN([*:1])CC3)cc2c1=O)[*:2]; Phe(4-CF3) = N[C@@H](Cc1ccc(C(F)(F)F)cc1)C(=O)O; Phe(F5) = N[C@@H](Cc1c(F)c(F)c(F)c(F)c1F)C(=O)O; PEG30,000 SSA = (PEG-30,000)CH2CH2NHCOCH2CH2CO; Phe(3-F) = N[C@@H](Cc1cccc(F)c1)C(=O)O; NMeR = CN[C@@H](CCCNC(=N)N)C(=O)O Some results are limits rather than exact numbers.

Sequence of Y1R (P25929 whole entry): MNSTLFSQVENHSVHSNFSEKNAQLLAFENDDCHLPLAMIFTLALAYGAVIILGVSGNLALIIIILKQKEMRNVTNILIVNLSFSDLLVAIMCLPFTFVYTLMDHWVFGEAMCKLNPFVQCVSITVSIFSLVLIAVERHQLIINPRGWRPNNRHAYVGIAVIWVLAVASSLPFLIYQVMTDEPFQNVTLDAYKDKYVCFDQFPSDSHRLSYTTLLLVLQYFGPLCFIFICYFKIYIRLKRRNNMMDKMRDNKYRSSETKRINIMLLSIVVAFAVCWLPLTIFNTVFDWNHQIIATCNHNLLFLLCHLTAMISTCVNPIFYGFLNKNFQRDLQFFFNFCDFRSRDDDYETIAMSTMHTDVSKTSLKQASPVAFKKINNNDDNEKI

B1: mixture of ((PEG-30,000)CH2CH2CO)Ile-Lys-Pqa-Arg-His-Tyr-Leu-Asn-Trp-Val-Thr-Arg-Gln-(NMe)Arg-Tyr-NH2 and … (peptide)
peptide: IK[Pqa]RHYLNWVTRQ[NMeR]Y-NH2
modifications: also: mixture: PEG30,000 SPA on N-terminal Ile or on Lys ε-amino (majority on Lys)
As to B1, the “Y1R EC50 (nM) FLIPR” value in assay [1] was greater than 5000 nM. The “Y4R EC50 (nM) FLIPR” value in assay [2] is greater than 5000 nM. Moreover, the “Y5R EC50 (nM) FLIPR” value in assay [3] is greater than 5000 nM.
With H-IK[Pqa]RHYLNLVTRQ[NMeR][Phe(4-CF3)]-NH2 [H-Ile-Lys-Pqa-Arg-His-Tyr-Leu-Asn-Leu-Val-Thr-Arg-Gln-(NMe)Arg-4-trifluoro methyl-Phe-NH2], in assay [4], the “Y2R EC50 (nM) FLIPR” value stood at 6.13 nM and the “Y2R EC50 (nM) cAMP” value was determined as 3.55 nM.

B2: Pentoyl-Ile-Lys-Pqa-Arg-His-Tyr-Leu-Asn-Trp-Val-Thr-Arg-Gln-(NMe)Arg-Tyr-NH2 (peptide)
peptide: IKXRHYLNWVTRQRY
HELM: PEPTIDE1{[CCCCC(=O)[*:2]].I.K.[O=C(Cn1cnc2ccc(N3CCN([*:1])CC3)cc2c1=O)[*:2]].R.H.Y.L.N.W.V.T.R.Q.[meR].Y.[am]}$$$$V2.0
SMILES: CCCCC(=O)N[C@H](C(=O)N[C@@H](CCCCN)C(=O)N1CCN(c2ccc3ncn(CC(=O)N[C@@H](CCCNC(=N)N)C(=O)N[C@@H](Cc4c[nH]cn4)C(=O)N[C@@H](Cc4ccc(O)cc4)C(=O)N[C@@H](CC(C)C)C(=O)N[C@@H](CC(N)=O)C(=O)N[C@@H](Cc4c[nH]c5ccccc45)C(=O)N[C@H](C(=O)N[C@H](C(=O)N[C@@H](CCCNC(=N)N)C(=O)N[C@@H](CCC(N)=O)C(=O)N(C)[C@@H](CCCNC(=N)N)C(=O)N[C@@H](Cc4ccc(O)cc4)C(N)=O)[C@@H](C)O)C(C)C)c(=O)c3c2)CC1)[C@@H](C)CC
As for B2, in assay [4], the “Y2R EC50 (nM) FLIPR” value turned out to be 0.873 nM and the “Y2R EC50 (nM) cAMP” value came out at 0.51 nM. The “Y1R EC50 (nM) FLIPR” value in assay [1] is greater than 5000 nM. Also, the “Y4R EC50 (nM) FLIPR” value in assay [2] was greater than 5000 nM. The “Y5R EC50 (nM) FLIPR” value in assay [3] is greater than 5000 nM.
In the case of H-IK(PEG30,000 SSA)[Pqa]RHYLNWVTRQ[NMeR]Y-NH2, in assay [1], the “Y1R EC50 (nM) FLIPR” value is greater than 5000 nM. Moreover, the “Y4R EC50 (nM) FLIPR” value in assay [2] is greater than 5000 nM. In addition, the “Y5R EC50 (nM) FLIPR” value in assay [3] was greater than 5000 nM.
H-IK[Pqa]RHYLNLVTRQ[NMeR][Phe(3-F)]-NH2 [H-Ile-Lys-Pqa-Arg-His-Tyr-Leu-Asn-Leu-Val-Thr-Arg-Gln-(NMe)Arg-3Fluoro-Phe-NH2]: in assay [4], the “Y2R EC50 (nM) FLIPR” value worked out at 0.635 nM and the “Y2R EC50 (nM) cAMP” value was found to be 0.75 nM.

B3: H-Ile-Nle-Pqa-Arg-His-Tyr-Leu-Asn-Trp-Val-Thr-Arg-Gln-(NMe)Arg-Tyr-NH2 (peptide)
peptide: IXXRHYLNWVTRQRY
modifications: Nle as second residue; Pqa as third residue; (NMe)Arg as penultimate residue; C-terminal amide (NH2)
Consider B3, for which, in assay [4], the “Y2R EC50 (nM) FLIPR” value turned out to be 8.1 nM and the “Y2R EC50 (nM) cAMP” value amounted to 0.108 nM. The “Y1R EC50 (nM) FLIPR” value in assay [1] was greater than 5000 nM. Further, the “Y4R EC50 (nM) FLIPR” value in assay [2] is greater than 5000 nM. Also, in assay [3], the “Y5R EC50 (nM) FLIPR” value was greater than 5000 nM.
On to H-IK[Pqa]RHYLNLVTRQ[NMeR][Phe(F5)]-NH2 [H-Ile-Lys-Pqa-Arg-His-Tyr-Leu-Asn-Leu-Val-Thr-Arg-Gln-(NMe)Arg-2,3,4,5,6 Pentafluoro-Phe-NH2], for which, in assay [4], the “Y2R EC50 (nM) FLIPR” value is 11.9 nM and the “Y2R EC50 (nM) cAMP” value was 2.5 nM.
Take H-IK[Pqa]RHYLNLVTRQ[NMeR]F-NH2 [H-Ile-Lys-Pqa-Arg-His-Tyr-Leu-Asn-Leu-Val-Thr-Arg-Gln-(NMe)Arg-Phe-NH2]: in assay [4], the “Y2R EC50 (nM) FLIPR” value worked out at 1.54 nM and the “Y2R EC50 (nM) cAMP” value came out at 0.69 nM.

B4: H-Ile-Lys-Pqa-Arg-His-Tyr-Leu-Asn-Leu-Val-Thr-Arg-Gln-(NMe)Arg-1-Nal-NH2 (peptide)
peptide: IKXRHYLNLVTRQRX
modifications: Pqa as third residue; (NMe)Arg as penultimate residue; 1-Nal (1-Naphthyl Alanine) as C-terminal residue; C-terminal amide (NH2)
Turning to B4, in assay [4], the “Y2R EC50 (nM) FLIPR” value was 2.73 nM and the “Y2R EC50 (nM) cAMP” value was 1.14 nM.

B5: H-Ile-Lys-Pqa-Arg-His-Tyr-Leu-Asn-Leu-Val-Thr-Arg-Gln-(NMe)Arg-Cha-NH2 (peptide)
peptide: IKXRHYLNLVTRQRX
modifications: Pqa as third residue; (NMe)Arg as penultimate residue; Cha (Cyclohexyl Alanine) as C-terminal residue; C-terminal amide (NH2)
For the molecule B5, in assay [4], the “Y2R EC50 (nM) FLIPR” value came to 0.498 nM and the “Y2R EC50 (nM) cAMP” value was 0.5 nM. Also, the “Y1R EC50 (nM) FLIPR” value in assay [1] is greater than 5000 nM. Besides, the “Y5R EC50 (nM) FLIPR” value in assay [3] is 352 nM.
